T1: corticotropin releasing factor 2 receptor
T1 sequence (Q13324 whole entry, species assumed, looked up): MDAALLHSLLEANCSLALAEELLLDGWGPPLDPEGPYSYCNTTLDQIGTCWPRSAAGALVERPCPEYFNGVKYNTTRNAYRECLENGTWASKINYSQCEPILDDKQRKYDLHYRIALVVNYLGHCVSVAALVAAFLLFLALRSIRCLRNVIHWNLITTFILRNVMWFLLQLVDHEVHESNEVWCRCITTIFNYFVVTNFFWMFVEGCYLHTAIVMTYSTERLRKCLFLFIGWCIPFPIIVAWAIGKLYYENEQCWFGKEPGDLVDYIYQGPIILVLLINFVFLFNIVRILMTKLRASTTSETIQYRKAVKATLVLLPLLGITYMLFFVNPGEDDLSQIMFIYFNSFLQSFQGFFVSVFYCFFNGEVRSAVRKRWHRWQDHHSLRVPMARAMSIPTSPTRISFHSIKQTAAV

Ends that are not written are not given here.
Wherever CRF1R Emax is given: reference of the scale not given here.
Wherever CRF2R Emax is given: reference of the scale not given here.

For the first experiment, the target named is corticotropin releasing factor 1 receptor. Nature of the experiment: cell-based or functional assay.
For IVLSLDVPIGLLQILLEQAKADAAREQATTNARILARV-NH2 [SEQ ID NO 131], the “CRF1R EC50” value was > 100 nM and the “CRF1R Emax” value was 8%.
In the case of IVLSLDVPIGLLQILLEQARADAAREQATTNARILARV-NH2 [SEQ ID NO 130], the “CRF1R EC50” value was > 100 nM and the “CRF1R Emax” value stood at 9%.
For the molecule IVLSLDVPIGLLQILLEQRAAREQATTNARILARV-NH2 [SEQ ID NO 136], the “CRF1R EC50” value was > 100 nM and the “CRF1R Emax” value was found to be 8%.
With IVLSLDVPIGLLQILLEQTRADAAREQATTNARILARV-NH2 [SEQ ID NO 126], the “CRF1R EC50” value was > 100 nM and the “CRF1R Emax” value was 7%.
As to IVLSLDVPIGLLQILLEQEKQEAAREQATTNARILARV-NH2 [SEQ ID NO 125], the “CRF1R EC50” value is > 100 nM and the “CRF1R Emax” value turned out to be 9%.
IVLSLDVPIGLLQILLEQAKARAAREQATTNARILARV-NH2 [SEQ ID NO 127]: the “CRF1R EC50” value is > 100 nM.
For the molecule ZGPPISIDLSLELLRKMIEIEKQEKEKQQATTNARILARV (C-terminal amide) [SEQ ID NO 142], the “CRF1R EC50” value is 43.5 nM and the “CRF1R Emax” value came out at 85.3%.
As for ZGPPISIDLPFQLLRKMIEIEKQEKEKQQATTNARILARV (C-terminal amide) [SEQ ID NO 148], the “CRF1R EC50” value was found to be 295 nM and the “CRF1R Emax” value is 100%.
Turning to ZGPPISIDLPLQLLRKMIEIEKQEKEKQQATTNARILARV (C-terminal amide) [SEQ ID NO 144], the “CRF1R EC50” value was found to be 567 nM and the “CRF1R Emax” value turned out to be 100%.
With ZGPPISIDLPLELLRKMIEIEKQEKEKQQATTNARILARV (C-terminal amide) [SEQ ID NO 143], the “CRF1R EC50” value stood at 232 nM and the “CRF1R Emax” value amounted to 100%.
ZGPPISIDLPFHLLRKMIEIEKQEKEKQQATTNARILARV (C-terminal amide) [SEQ ID NO 146]: the “CRF1R EC50” value worked out at 103 nM and the “CRF1R Emax” value came to 100%.
The corresponding values for ZGPPISIDLPFYLLRKMIEIEKQEKEKQQATTNARILARV (C-terminal amide) [SEQ ID NO 147] are 102 nM and 96%.
The corresponding values for ZGPPISIDLPLHLLRKMIEIEKQEKEKQQATTNARILARV (C-terminal amide) [SEQ ID NO 145] are 196 nM and 91.3%.
Consider ZGPPISIDLPIYLLRKMIEIEKQEKEKQQATTNARILARV (C-terminal amide) [SEQ ID NO 149], for which the “CRF1R EC50” value was 1000 nM and the “CRF1R Emax” value was 40.7%.
Consider IVLSLDVPIGLLQILLEQEKEKKRKETNARILARV-NH2 [SEQ ID NO 132], for which the “CRF1R EC50” value was > 100 nM and the “CRF1R Emax” value was determined as 8%.

The target in the next experiment is T1, corticotropin releasing factor 2 …. Nature of the experiment: cell-based or functional assay.
As to IVLSLDVPIGLLQILLEQAKADAAREQATTNARILARV-NH2 [SEQ ID NO 131], the “CRF2R EC50” value turned out to be 5.25 nM and the “CRF2R Emax” value came out at 91%.
As for IVLSLDVPIGLLQILLEQARADAAREQATTNARILARV-NH2 [SEQ ID NO 130], the “CRF2R EC50” value amounted to 8.57 nM and the “CRF2R Emax” value came out at 92%.
On to IVLSLDVPIGLLQILLEQRAAREQATTNARILARV-NH2 [SEQ ID NO 136], for which the “CRF2R EC50” value came to 23.4 nM and the “CRF2R Emax” value is 68%.
For IVLSLDVPIGLLQILLEQTRADAAREQATTNARILARV-NH2 [SEQ ID NO 126], in that order: 13 nM and 91%.
With IVLSLDVPIGLLQILLEQEKQEAAREQATTNARILARV-NH2 [SEQ ID NO 125], the “CRF2R EC50” value is 4.47 nM and the “CRF2R Emax” value stood at 99%.
On to IVLSLDVPIGLLQILLEQAKARAAREQATTNARILARV-NH2 [SEQ ID NO 127], for which the “CRF2R EC50” value was determined as 7.79 nM.
Turning to ZGPPISIDLSLELLRKMIEIEKQEKEKQQATTNARILARV (C-terminal amide) [SEQ ID NO 142], the “CRF2R EC50” value was 9.08 nM and the “CRF2R Emax” value turned out to be 77%.
Regarding ZGPPISIDLPFQLLRKMIEIEKQEKEKQQATTNARILARV (C-terminal amide) [SEQ ID NO 148], the “CRF2R EC50” value was determined as 9.45 nM and the “CRF2R Emax” value turned out to be 51.5%.
Consider ZGPPISIDLPLQLLRKMIEIEKQEKEKQQATTNARILARV (C-terminal amide) [SEQ ID NO 144], for which the “CRF2R EC50” value came to 9.16 nM and the “CRF2R Emax” value stood at 85.5%.
As for ZGPPISIDLPLELLRKMIEIEKQEKEKQQATTNARILARV (C-terminal amide) [SEQ ID NO 143], the “CRF2R EC50” value came to 11.1 nM and the “CRF2R Emax” value was 85.5%.
Take ZGPPISIDLPFHLLRKMIEIEKQEKEKQQATTNARILARV (C-terminal amide) [SEQ ID NO 146]: the “CRF2R EC50” value was 8.2 nM and the “CRF2R Emax” value came out at 84.5%.
The corresponding values for ZGPPISIDLPFYLLRKMIEIEKQEKEKQQATTNARILARV (C-terminal amide) [SEQ ID NO 147] are 6.75 nM and 94%.
In the case of ZGPPISIDLPLHLLRKMIEIEKQEKEKQQATTNARILARV (C-terminal amide) [SEQ ID NO 145], the “CRF2R EC50” value was 7.8 nM and the “CRF2R Emax” value came to 69%.
ZGPPISIDLPIYLLRKMIEIEKQEKEKQQATTNARILARV (C-terminal amide) [SEQ ID NO 149]: the “CRF2R EC50” value is 26.2 nM and the “CRF2R Emax” value is 95.5%.
Regarding IVLSLDVPIGLLQILLEQEKEKKRKETNARILARV-NH2 [SEQ ID NO 132], the “CRF2R EC50” value turned out to be 7.53 nM and the “CRF2R Emax” value was found to be 88%.

These data come from patent publication US20030148958A1 (PROCTER AND GAMBLE, published 2003).
